Data reported in article PMC10038035 (Journal of Enzyme Inhibition and Medicinal Chemistry, 2023).

Target: the molecule itself
Test: PrP aggregate formation assay (PAFA, thioflavin T fluorescence)

B1: His-tagged mouse recombinant PrP (23-231) (domain or fragment)
chain: not shown
B1: binds.
